Test results: patent publication EP2938355B1, “MONOVALENT AND MULTIVALENT LEISHMANIA VACCINES” (VIRBAC S.A., priority 2012, dated 2014)
Residue numbers refer to the chain shown, from its start.

Experiments:
Experiment in all cases: Competition binding to HLA class II molecule against reference peptide
Parameters in all cases: species or system Homme
[1] = target: HLA-DRB3 (Homo sapiens, UniProt P01903+P79483); details: for activité relative (ratio moyenne IC50 peptide testé / moyenne IC50 peptide de référence): DRB3, lower ratio = better affinity; for affinité de liaison (in words): HLADRB3
From the text: (§1) Les tableaux 7 et 8 ci-dessous représentent la concentration en peptide compétiteur (nM) (SEQ ID N°9 ou SEQ ID N°10) pour laquelle 50% de la liaison du peptide de référence aux molécules HLA-DRB1 et aux molécules HLADRB3, -DRB4, -DRB5 et HLA-DP4, est inhibée (IC50).
(§2) Pour chacun des tableaux 7 et 8, les résultats sont issus de deux expériences indépendantes. Tableau 7 :
(§3) Comme pour les résultats présentés ci-dessus, le tableau 8 illustre l'ensemble des valeurs d'IC50 obtenues pour les deux peptides testés et leur peptide de référence comme contrôle interne, pour la liaison aux molécules HLA-DRB3, -DRB4, -DRB5 et aux molécules HLA-DP401 et -DP402. Tableau 8 =:
(§4) Le tableau 9 ci-dessous illustre l'activité relative des deux composés peptidiques SEQ ID N°9 et 10 pour les molécules HLA-DR, HLA-DRB et HLA-DP4 étudiées. L'activité relative est calculée à partir des deux tableaux 7 et 8 ci-dessus de la façon suivante : Ratio = (moyenne des valeurs d'IC50 obtenues pour le peptide testé)/(moyenne des valeurs d'IC50 obtenues avec le peptide de référence). Tableau 9 :
(§5) Dans ce tableau 9, l'activité relative est définie par le ratio obtenu entre la moyenne des IC50 calculée avec le peptide compétiteur et la moyenne des IC50 calculée avec le peptide de référence. L'activité relative permet ainsi de comparer les propriétés de liaison du peptide testé à celle du peptide de référence qui correspond au peptide qui lie de façon la plus efficace une molécule HLA donnée. Ainsi, une activité relative de 2 signifie que le peptide testé lie 2 fois moins efficacement la molécule HLA étudiée que le peptide de référence. Ainsi, plus le ratio est faible, meilleure est l'affinité du peptide pour la molécule HLA considérée.

[2] = target: HLA-DRB4 (Homo sapiens, UniProt P01903+P13762); details: lower ratio = better affinity
From the text: as §1, §2, §3, §4, §5

[3] = target: T1, HLA-DP401 (Homo sapiens, UniProt P04440+P20036); details: lower ratio = better affinity
T1 sequence (P04440 30-258): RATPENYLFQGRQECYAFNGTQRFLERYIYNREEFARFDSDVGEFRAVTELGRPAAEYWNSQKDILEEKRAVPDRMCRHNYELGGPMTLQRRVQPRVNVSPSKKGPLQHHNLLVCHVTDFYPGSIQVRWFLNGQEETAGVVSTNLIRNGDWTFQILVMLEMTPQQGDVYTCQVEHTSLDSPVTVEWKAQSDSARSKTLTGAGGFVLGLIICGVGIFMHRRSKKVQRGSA
T1 sequence (P20036 32-260 limits assumed): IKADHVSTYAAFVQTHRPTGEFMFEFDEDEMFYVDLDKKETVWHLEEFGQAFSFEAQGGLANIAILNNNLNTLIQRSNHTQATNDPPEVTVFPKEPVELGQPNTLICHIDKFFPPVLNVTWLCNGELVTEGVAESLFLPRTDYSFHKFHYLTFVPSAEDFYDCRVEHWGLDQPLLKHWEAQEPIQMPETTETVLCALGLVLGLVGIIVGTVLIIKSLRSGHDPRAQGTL
From the text: as §1, §2, §3, §4, §5

[4] = target: HLA-DRB5 (Homo sapiens, UniProt P01903+Q30154); details: for activité relative (ratio moyenne IC50 peptide testé / moyenne IC50 peptide de référence): lower ratio = better affinity
From the text: as §1, §2, §3, §4, §5

[5] = target: T2, HLA-DP402 (Homo sapiens, UniProt P04440+P20036, A65V/A84D/A85E); details: lower ratio = better affinity
T2 sequence (P04440 30-258 A65V/A84D/A85E): T1 sequence (P04440 30-258) with A36V, A55D, A56E
T2 sequence (P20036 29-260): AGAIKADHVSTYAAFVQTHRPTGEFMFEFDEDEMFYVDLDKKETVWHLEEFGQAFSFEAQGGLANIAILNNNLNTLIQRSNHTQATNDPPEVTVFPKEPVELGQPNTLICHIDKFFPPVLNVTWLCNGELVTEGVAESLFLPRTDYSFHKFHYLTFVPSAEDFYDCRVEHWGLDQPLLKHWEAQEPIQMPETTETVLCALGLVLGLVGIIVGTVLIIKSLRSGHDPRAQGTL
From the text: as §1, §2, §3, §4, §5

[6] = target: HLA-DR13 (Homo sapiens, UniProt P01903+P01911); details: lower ratio = better affinity
From the text: as §1, §2
(§6) Les valeurs indiquées correspondent aux IC50 obtenus pour chaque peptide étudié.
(§7) Plus la valeur de l'IC50 est faible, meilleure est l'affinité du peptide pour la molécule HLA étudiée. Ainsi, il est important de noter que les peptides de référence n'ont pas tous la même capacité de liaison selon la molécule HLA considérée. Ces valeurs correspondent aux valeurs standards attendues.
as §4, §5

[7] = target: HLA-DR4 (Homo sapiens, UniProt P01903+P01911); details: lower ratio = better affinity
From the text: as §1, §2, §6, §7, §4, §5

[8] = target: HLA-DR7 (Homo sapiens, UniProt P01903+P01911); details: for activité relative (ratio moyenne IC50 peptide testé / moyenne IC50 peptide de référence): DR7, lower ratio = better affinity
From the text: as §1, §2, §6, §7, §4, §5

[9] = target: HLA-DR15 (Homo sapiens, UniProt P01903+P01911); details: lower ratio = better affinity
From the text: as §1, §2, §6, §7, §4, §5

[10] = target: HLA-DR11 (Homo sapiens, UniProt P01903+P01911); details: lower ratio = better affinity
From the text: as §1, §2, §6, §7, §4, §5

[11] = target: HLA-DR3 (Homo sapiens, UniProt P01903+P01911); details: for activité relative (ratio moyenne IC50 peptide testé / moyenne IC50 peptide de référence): lower ratio = better affinity; for affinité de liaison (in words): HLA-DR3
From the text: as §1, §2, §6, §7, §4, §5

[12] = target: HLA-DR1 (Homo sapiens, UniProt P01903+P01911); details: for activité relative (ratio moyenne IC50 peptide testé / moyenne IC50 peptide de référence): DR1, lower ratio = better affinity
From the text: as §1, §2, §6, §7, §4, §5

Row | Substance | activité relative (ratio moyenne IC50 peptide testé / moyenne IC50 peptide de référence) [1] | affinité de liaison (in words) [1] | activité relative (ratio moyenne IC50 peptide testé / moyenne IC50 peptide de référence) [2] | activité relative (ratio moyenne IC50 peptide testé / moyenne IC50 peptide de référence) [3] | activité relative (ratio moyenne IC50 peptide testé / moyenne IC50 peptide de référence) [4] | activité relative (ratio moyenne IC50 peptide testé / moyenne IC50 peptide de référence) [5] | activité relative (ratio moyenne IC50 peptide testé / moyenne IC50 peptide de référence) [6] | activité relative (ratio moyenne IC50 peptide testé / moyenne IC50 peptide de référence) [7] | activité relative (ratio moyenne IC50 peptide testé / moyenne IC50 peptide de référence) [8] | activité relative (ratio moyenne IC50 peptide testé / moyenne IC50 peptide de référence) [9] | activité relative (ratio moyenne IC50 peptide testé / moyenne IC50 peptide de référence) [10] | activité relative (ratio moyenne IC50 peptide testé / moyenne IC50 peptide de référence) ([11]; DR3) | IC50 ([11]; DR3, two independent experiments, one line each, read-out: IC50 (concentration en peptide compétiteur pour laquelle 50% de la liaison du peptide de référence est inhibée)) [nM] | affinité de liaison (in words) [11] | activité relative (ratio moyenne IC50 peptide testé / moyenne IC50 peptide de référence) [12] | affinité de liaison (in words) [4] | affinité de liaison (in words) ([8]; HLA-DR7) | affinité de liaison (in words) ([12]; HLA-DR1)
1 | EGYFVTDEKTGLVYRDGGVAAASSG (EGYFVTDEKTGLVYRDGGVAAASSG) [SEQ ID N°10] | 5 | bonne affinité de liaison | >9535 | 5556 | 688 | 2000 | 18 | 2 | 928 | 1 | 3 | 0,2 | 35 | bonne affinité de liaison | 271 | – | – | –
2 | TNTLAVLQAFGRAIPELGKKW (TNTLAVLQAFGRAIPELGKKW) [SEQ ID N°9] | >274 | n'est pas actif | 1331 | >3727 | 0,9 | >2222 | 41 | 2 | 3 | 5 | 3 | >187 | – | n'est pas actif | 1 | affinité de liaison élevée | affinité de liaison élevée | affinité de liaison élevée
